Results reported in PMC10359460, “Structural basis of the T4 bacteriophage primosome assembly and primer synthesis” (Nature Communications, 2023).

B2: T4 bacteriophage gp41 helicase (enzyme, UniProt P04530 1-475, looked up)
chain: MVEIILSHLIFDQAYFSKVWPYMDSEYFESGPAKNTFKLIKSHVNEYHSVPSINALNVALENSSFTETEYSGVKTLISKLADSPEDHSWLVKETEKYVQQRAMFNATSKIIEIQTNAELPPEKRNKKMPDVGAIPDIMRQALSISFDSYVGHDWMDDYEARWLSYMNKARKVPFKLRILNKITKGGAETGTLNVLMAGVNVGKSLGLCSLAADYLQLGHNVLYISMEMAEEVCAKRIDANMLDVSLDDIDDGHISYAEYKGKMEKWREKSTLGRLIVKQYPTGGADANTFRSLLNELKLKKNFVPTIIIVDYLGICKSCRIRVYSENSYTTVKAIAEELRALAVETETVLWTAAQVGKQAWDSSDVNMSDIAESAGLPATADFMLAVIETEELAAAEQQLIKQIKSRYGDKNKWNKFLMGVQKGNQKWVEIEQDSTPTEVNEVAGSQQIQAEQNRYQRNESTRAQLDALANELKF
notes: gp41 helicase of T4 bacteriophage, wild type; NTD (globular subdomain and helical hairpin), linking helix and RecA-like CTD; Hexamer assembled with ATPγS; also called WT gp41 helicase; T4 helicase
B3: T4 bacteriophage gp41 helicase E227Q (enzyme, UniProt P04530 1-475, looked up)
chain: MVEIILSHLIFDQAYFSKVWPYMDSEYFESGPAKNTFKLIKSHVNEYHSVPSINALNVALENSSFTETEYSGVKTLISKLADSPEDHSWLVKETEKYVQQRAMFNATSKIIEIQTNAELPPEKRNKKMPDVGAIPDIMRQALSISFDSYVGHDWMDDYEARWLSYMNKARKVPFKLRILNKITKGGAETGTLNVLMAGVNVGKSLGLCSLAADYLQLGHNVLYISMQMAEEVCAKRIDANMLDVSLDDIDDGHISYAEYKGKMEKWREKSTLGRLIVKQYPTGGADANTFRSLLNELKLKKNFVPTIIIVDYLGICKSCRIRVYSENSYTTVKAIAEELRALAVETETVLWTAAQVGKQAWDSSDVNMSDIAESAGLPATADFMLAVIETEELAAAEQQLIKQIKSRYGDKNKWNKFLMGVQKGNQKWVEIEQDSTPTEVNEVAGSQQIQAEQNRYQRNESTRAQLDALANELKF
notes: gp41 helicase of T4 bacteriophage with E227Q in the walker-B motif (no ATP hydrolysis); PDB 8DTP is the wild-type parent; also called gp41(E227Q)

Legend:
[1] = molecular target: T1, T4 primosome (gp41 helicase-gp61 primase) (Tequatrovirus T4, UniProt P04530); assay: cryo-EM structure; type: binding; settings: WT primosome with ssDNA, closed-ring gp41; 5 mM ATPγS, 10 mM MgCl2, pH 7.8; sites on gp41
T1 construct: gene 41; full-length proteins, intein fusions self-cleaved, E. coli BL21(DE3); 6:1 helicase:primase on ssDNA; with DNA primase
T1 sequence (P04530 1-475): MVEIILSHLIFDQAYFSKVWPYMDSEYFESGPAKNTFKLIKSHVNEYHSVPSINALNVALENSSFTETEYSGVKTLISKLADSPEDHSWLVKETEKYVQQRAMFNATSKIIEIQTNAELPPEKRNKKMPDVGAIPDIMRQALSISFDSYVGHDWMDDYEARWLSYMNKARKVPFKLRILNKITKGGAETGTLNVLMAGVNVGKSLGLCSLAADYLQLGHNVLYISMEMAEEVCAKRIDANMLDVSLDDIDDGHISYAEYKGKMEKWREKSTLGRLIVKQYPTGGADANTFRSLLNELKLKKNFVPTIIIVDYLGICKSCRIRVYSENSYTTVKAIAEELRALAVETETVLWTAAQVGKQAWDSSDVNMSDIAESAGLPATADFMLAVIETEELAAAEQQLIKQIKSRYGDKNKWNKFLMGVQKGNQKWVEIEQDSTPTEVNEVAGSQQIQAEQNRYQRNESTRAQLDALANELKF
T1 sequence (P04520 1-342 partner): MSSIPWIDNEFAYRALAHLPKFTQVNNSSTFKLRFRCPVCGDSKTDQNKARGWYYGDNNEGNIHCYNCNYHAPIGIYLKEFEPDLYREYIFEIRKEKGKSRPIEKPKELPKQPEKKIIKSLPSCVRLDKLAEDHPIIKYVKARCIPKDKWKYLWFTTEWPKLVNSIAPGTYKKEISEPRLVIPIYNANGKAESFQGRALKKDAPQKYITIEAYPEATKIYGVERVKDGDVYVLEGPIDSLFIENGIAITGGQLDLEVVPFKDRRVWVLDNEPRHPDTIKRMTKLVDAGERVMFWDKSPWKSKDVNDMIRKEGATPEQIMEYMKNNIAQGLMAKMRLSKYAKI

gp41 helicase [2] = molecular target: T2, gp41 helicase (Tequatrovirus T4, UniProt P04530); assay: cryo-EM structure; type: binding; settings: five of six nucleotide sites at CTD-CTD interfaces occupied; 5 mM ATPγS, 10 mM MgCl2, pH 7.8; open spiral without ssDNA (8DUO) or with ssDNA (8DUE), closed ring with ssDNA (8DTP)
T2 construct: gene 41; full-length, intein fusion self-cleaved, E. coli BL21(DE3); homohexamer, without or with ssDNA
T2 sequence (P04530 1-475): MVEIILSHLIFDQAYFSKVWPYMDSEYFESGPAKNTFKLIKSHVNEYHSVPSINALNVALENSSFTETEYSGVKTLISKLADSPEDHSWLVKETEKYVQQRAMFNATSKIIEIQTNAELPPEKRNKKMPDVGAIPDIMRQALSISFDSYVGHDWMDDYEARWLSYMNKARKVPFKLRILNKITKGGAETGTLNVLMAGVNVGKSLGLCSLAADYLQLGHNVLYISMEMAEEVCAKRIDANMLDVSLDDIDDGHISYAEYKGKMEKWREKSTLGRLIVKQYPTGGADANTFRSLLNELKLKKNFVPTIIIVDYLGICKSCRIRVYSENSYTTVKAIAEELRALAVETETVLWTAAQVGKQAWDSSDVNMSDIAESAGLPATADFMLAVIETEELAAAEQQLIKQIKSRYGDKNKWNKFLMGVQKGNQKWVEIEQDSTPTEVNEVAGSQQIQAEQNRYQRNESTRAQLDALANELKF

[3] = molecular target: B3; assay: cryo-EM structure; primosome assembled from gp41 E227Q helicase, WT gp61 primase and the ssDNA/RNA primer substrate; helicase and primase regions refined separately; settings: both partners purified
[4] = molecular target: B2; assay: cryo-EM structure; step 3: 6 uM gp41 helicase, 5 mM ATPγS, 12 uM ssDNA/RNA primer substrate and 3 uM gp61 primase; 20 mM HEPES pH 7.8, 100 mM NaCl, 10 mM MgCl2, 2 mM DTT; 30 min at room temperature; settings: both partners purified
[5] = molecular target: the molecule itself; assay: cryo-EM structure; step 1: 6 uM gp41 helicase with 5 mM ATPγS, no DNA; 20 mM HEPES pH 7.8, 100 mM NaCl, 10 mM MgCl2, 2 mM DTT; 30 min at room temperature
[6] = molecular target: the molecule itself; assay: cryo-EM structure; primosome assembled from gp41 E227Q helicase, WT gp61 primase and the ssDNA/RNA primer substrate; helicase and primase regions refined separately
[7] = molecular target: T3, gp41 helicase;gp61 primase (Escherichia phage T4 (T4 …, UniProt P04530;P04520 1-475;1-342, |)); assay: cryo-EM; ATPgS; WT primosome pose 1; ssDNA seen, no RNA primer density; Cryo-EM with ATPgS (stated for gp41 and WT primosome); assembly buffer and temperature not in the material; cryo-EM proteins purified in HEPES pH 7.8 buffers; settings: protein: recombinant;recombinant; tags: none (intein tag self-cleaved);none (intein tag self-cleaved); chain copies: 6;1; 70-nt DNA (strand 1) annealed to 5-nt RNA (strand 2) at internal TCGGC; single-stranded DNA on both sides
T3 sequence 1: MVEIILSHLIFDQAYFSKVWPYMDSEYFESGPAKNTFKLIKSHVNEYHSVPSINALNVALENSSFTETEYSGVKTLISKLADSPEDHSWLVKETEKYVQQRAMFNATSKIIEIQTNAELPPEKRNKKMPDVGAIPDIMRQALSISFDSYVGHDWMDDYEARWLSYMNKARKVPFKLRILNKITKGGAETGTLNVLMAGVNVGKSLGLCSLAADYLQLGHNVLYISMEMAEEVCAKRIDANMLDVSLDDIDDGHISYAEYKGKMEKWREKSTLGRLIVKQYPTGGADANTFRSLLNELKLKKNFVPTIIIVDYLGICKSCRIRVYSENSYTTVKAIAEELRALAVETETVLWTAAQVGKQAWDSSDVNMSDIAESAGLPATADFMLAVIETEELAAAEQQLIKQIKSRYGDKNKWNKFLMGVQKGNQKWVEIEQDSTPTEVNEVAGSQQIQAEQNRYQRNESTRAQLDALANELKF
T3 sequence 2: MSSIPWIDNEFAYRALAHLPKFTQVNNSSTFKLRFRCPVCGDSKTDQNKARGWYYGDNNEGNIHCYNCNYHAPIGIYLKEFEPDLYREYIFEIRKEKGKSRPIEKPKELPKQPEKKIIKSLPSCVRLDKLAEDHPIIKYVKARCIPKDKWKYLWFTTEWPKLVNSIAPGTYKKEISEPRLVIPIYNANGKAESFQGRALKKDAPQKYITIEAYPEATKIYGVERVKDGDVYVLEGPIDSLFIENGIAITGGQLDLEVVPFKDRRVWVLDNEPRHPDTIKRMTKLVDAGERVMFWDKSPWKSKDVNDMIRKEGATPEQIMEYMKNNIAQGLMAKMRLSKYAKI

gp41 helicase [8] = molecular target: T4, gp41 helicase (Escherichia phage T4 (T4 bacteriophage), UniProt P04530 1-475); assay: cryo-EM; ATPgS; open spiral, 10 nt ssDNA held; RNA primer not resolved; Cryo-EM with ATPgS (stated for gp41 and WT primosome); assembly buffer and temperature not in the material; cryo-EM proteins purified in HEPES pH 7.8 buffers; settings: protein: recombinant; tags: none (intein tag self-cleaved); chain copies: 6; 70-nt DNA (strand 1) annealed to 5-nt RNA (strand 2) at internal TCGGC; single-stranded DNA on both sides
T4 sequence: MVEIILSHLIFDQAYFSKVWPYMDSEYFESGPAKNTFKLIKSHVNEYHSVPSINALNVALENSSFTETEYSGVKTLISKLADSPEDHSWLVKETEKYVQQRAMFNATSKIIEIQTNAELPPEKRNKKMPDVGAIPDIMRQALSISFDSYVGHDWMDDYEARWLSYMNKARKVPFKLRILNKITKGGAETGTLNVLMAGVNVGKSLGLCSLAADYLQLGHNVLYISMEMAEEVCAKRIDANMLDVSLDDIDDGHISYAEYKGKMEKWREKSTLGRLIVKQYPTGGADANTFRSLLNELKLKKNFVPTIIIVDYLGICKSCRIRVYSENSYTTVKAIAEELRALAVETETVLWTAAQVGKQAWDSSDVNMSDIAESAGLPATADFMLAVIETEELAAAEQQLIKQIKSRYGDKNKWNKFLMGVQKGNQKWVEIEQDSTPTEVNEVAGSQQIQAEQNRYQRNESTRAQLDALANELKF

[9] = molecular target: T5, gp41(E227Q) helicase;gp61 primase (Escherichia phage T4 (T4 …, UniProt P04530;P04520 1-475;1-342, E227Q|)); assay: cryo-EM; mutant primosome, post primer synthesis; composite map, RNA/DNA hybrid seen; Cryo-EM with ATPgS (stated for gp41 and WT primosome); assembly buffer and temperature not in the material; cryo-EM proteins purified in HEPES pH 7.8 buffers; settings: protein: recombinant;recombinant; tags: none (intein tag self-cleaved);none (intein tag self-cleaved); chain copies: 6;1; 70-nt DNA (strand 1) annealed to 5-nt RNA (strand 2) at internal TCGGC; single-stranded DNA on both sides
T5 sequence 1: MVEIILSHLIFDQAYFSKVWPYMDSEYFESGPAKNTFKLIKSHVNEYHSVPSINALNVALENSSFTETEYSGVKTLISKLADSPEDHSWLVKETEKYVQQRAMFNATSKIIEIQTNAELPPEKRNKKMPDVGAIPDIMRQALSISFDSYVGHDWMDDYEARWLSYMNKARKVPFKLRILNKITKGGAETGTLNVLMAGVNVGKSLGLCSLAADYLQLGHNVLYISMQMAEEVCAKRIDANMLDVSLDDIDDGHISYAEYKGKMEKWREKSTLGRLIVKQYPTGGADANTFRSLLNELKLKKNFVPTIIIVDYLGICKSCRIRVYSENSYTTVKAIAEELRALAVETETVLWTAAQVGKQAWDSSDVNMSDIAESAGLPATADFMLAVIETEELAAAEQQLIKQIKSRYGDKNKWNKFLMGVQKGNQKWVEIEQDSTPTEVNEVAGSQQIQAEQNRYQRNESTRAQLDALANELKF
T5 sequence 2: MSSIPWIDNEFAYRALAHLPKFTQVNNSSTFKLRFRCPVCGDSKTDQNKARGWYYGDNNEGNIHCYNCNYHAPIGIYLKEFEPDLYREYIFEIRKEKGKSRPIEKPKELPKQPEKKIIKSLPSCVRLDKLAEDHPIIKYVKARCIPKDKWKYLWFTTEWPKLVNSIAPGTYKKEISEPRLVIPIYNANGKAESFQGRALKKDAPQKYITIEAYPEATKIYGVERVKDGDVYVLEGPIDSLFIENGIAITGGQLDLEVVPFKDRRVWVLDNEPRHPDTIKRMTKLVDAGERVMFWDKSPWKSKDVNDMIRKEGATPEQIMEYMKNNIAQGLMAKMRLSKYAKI

Nc1ncnc2c1ncn2[C@@H]1O[C@H](COP(=O)(O)OP(=O)(O)OP(O)(O)=S)[C@@H](O)[C@H]1O [ATPγS]
cryo-EM structure [1]: observed in the T4 primosome in the presence of ssDNA and ATPγS
cryo-EM structure (gp41 helicase [2]): five nucleotide binding pockets at the subunit interfaces occupied with ATPγS molecules

B1: T4 bacteriophage gp61 primase (enzyme, UniProt P04520 1-342, looked up)
chain: MSSIPWIDNEFAYRALAHLPKFTQVNNSSTFKLRFRCPVCGDSKTDQNKARGWYYGDNNEGNIHCYNCNYHAPIGIYLKEFEPDLYREYIFEIRKEKGKSRPIEKPKELPKQPEKKIIKSLPSCVRLDKLAEDHPIIKYVKARCIPKDKWKYLWFTTEWPKLVNSIAPGTYKKEISEPRLVIPIYNANGKAESFQGRALKKDAPQKYITIEAYPEATKIYGVERVKDGDVYVLEGPIDSLFIENGIAITGGQLDLEVVPFKDRRVWVLDNEPRHPDTIKRMTKLVDAGERVMFWDKSPWKSKDVNDMIRKEGATPEQIMEYMKNNIAQGLMAKMRLSKYAKI
notes: gp61 primase of T4 bacteriophage, wild type; N-terminal ZBD and C-terminal RPD joined by a linker loop (Lys97 to Lys115); the models hold a resolved full-length primase; also called WT gp61 primase; T4 primase
binding result [3]: binds
stoichiometry N [4]: 1 gp61 primase per gp41 helicase hexamer

B2
stoichiometry N [5]: 6 subunits

B3
binding result [6]: binds

B4: ssDNA template/pentaribonucleotide primer (DNA:RNA)
DNA: GAATGAGGAGTAGTAGTGAATGTAGTGAGGTAATATCGGCTGGTCTGGTCTGTGCCAAGTTGCTGCAAAA
?: GCCGA
modifications: RNA primer 5'-triphosphate
binding result [7]: binds
binding result (gp41 helicase [8]): binds
binding result [9]: binds
